Two molecules from US20200384107A1 (PRIMATOPE THERAPEUTICS, published 2020) can be followed below.

As usually defined, the Kd is a measure of binding affinity in units of concentration. One may read the koff as the rate constant with which the complex falls apart. For orientation: kon means a measure of how fast the partners come together.

Test [1] deals with T1, human CD40 on human blood B cells (CD20+ cells of PBMCs) (human, UniProt P25942 21-277).
T1 construct: whole, on cells; also called human CD20+ B cells; human B cells
The test can be described thus: flow cytometry blocking assay: human B cells incubated with 2C10, then with histidine-tagged soluble CD154, read by histidine staining. The method, then: To assess the ability of 2C10 to bind to both rhesus and human CD40, recombinantly expressed human or rhesus CD40 were adsorbed to ELISA plates and reacted with varying concentrations of 2C10. Binding of 2C10 to CD40 was detected using goat anti-mouse IgG-HRP in an ELISA. […] To confirm the ability of 2C10 to block binding of its cognate ligand, CD154, rhesus and human B cells were incubated with escalating concentrations of 2C10 or an isotype control and then incubated with histidine-tagged soluble CD154 (R&D Systems, Minneapolis, Minn.) and analyzed for histidine expression.
On the technique in general: A flow cytometer gives signals particle by particle.

Test [2] concerns the target T2, human CD40, recombinant / purified (human, UniProt P25942 21-193, limits assumed).
T2 construct: also called hCD40; purified CD40
The test can be described thus: kinetics on human CD40; Biacore by paragraph 276, Forte Bio with biotinylated CD40 on streptavidin biosensors by paragraph 270.

Test [3] concerns the target T3, CD40 (as in Table 2, species and form not stated).
T3 construct: also called CD40 Receptor
Briefly: binding kinetics, method not stated.

Test [4] addresses T4, human CD40-MBP fusion (human, UniProt P25942 21-193; P0AEX9 27-392 = MBP, limits assumed).
T4 construct: also called CD40-MBP fusions of human
The test can be described thus: BIACore 3000, h2C10 amine-coupled to a CM5 chip, human CD40-MBP injected at 0-160 nM. The method, then: (§1) Humanized 2C10 antibodies (h2C10) were immobilized to the surface of CM5 chip by amine coupling. Different concentrations of CD40-MBP fusions of human, rhesus, and baboon were analyzed for affinity on a BIACore 3000. The binding affinity was calculated with BIAevaluation software version 4.1.1.
(Surface plasmon resonance follows binding to a sensor surface in real time, without labels.)

Test [5] has as its target T5, rhesus CD40-MBP fusion (rhesus macaque (M. mulatta), UniProt P25942 21-120 (human entry)).
T5 construct: also called CD40-MBP fusions of rhesus
T5 chain: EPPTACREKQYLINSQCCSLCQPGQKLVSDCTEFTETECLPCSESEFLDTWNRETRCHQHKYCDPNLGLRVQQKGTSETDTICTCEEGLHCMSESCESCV
Briefly: BIACore 3000, h2C10 amine-coupled to a CM5 chip, rhesus CD40-MBP injected at 0-160 nM. The method, then:
as §1

Test [6] has as its target T2, human CD40, recombinant / purified. The test can be described thus: CD40 binding affinity, method not given; reference murine 2C10.
Test [7] has the same target. The test can be described thus: kinetics on human CD40, compared with murine 2C10.
For test [8] the target is unchanged. Briefly: kinetics on human CD40, compared with parent 2C10.
Test [9] concerns the target T6, baboon CD40-MBP fusion (baboon, UniProt P0AEX9 27-392 = MBP).
T6 construct: also called CD40-MBP fusions of baboon; not shown: baboon CD40 part of the MBP fusion
Briefly: BIACore 3000, h2C10 amine-coupled to a CM5 chip, baboon CD40-MBP injected at 0-160 nM. The method, then:
as §1

B1: 2C10 (murine anti-CD40 monoclonal antibody) (antibody, V domains shown)
VH: QVQLQQSGAELAKPGASVKMSCKASGYTFTNYWMHWVKQRPGQGLEWIGYINPSNDYTKYNQKFKDKATLTADKSSNTAYMQLGSLTSEDSAVYYCARQGFPYWGQGTLVTVSA
VL: QIVLTQSPAIMSASPGEKVTMTCSASSSVSYMHWYHQRSGTSPKRWIYDTSKLASGVPARFSGSGSGTSYSLTISSMEAEDAATYYCHQLSSDPFTFGSGTKLEIK
notes: In some assays it was conjugated to a fluorochrome (APC); also called murine 2C10; parent 2C10 mAb
In the case of B1, the “IC50 (read off the curve)” value in [1] is around 1 µg/mL. Also, in test [2], the equilibrium dissociation constant (Kd) was 0.222 nM, the koff was determined as 6.01e-05 s⁻¹ and the kon was 148000 M⁻¹ s⁻¹. In test [3], this molecule gave a Kd of 0.273 nM, a koff of 1.86e-06 s⁻¹ and a kon of 2730 M⁻¹ s⁻¹.

B2: humanized 2C10, clone 2.189.2 (2C10_h3 + 2C10_l2) (antibody, V domains shown)
VH: QVQLVQSGAEVKKPGASVKVSCKASGYTFTNYWMHWVRQAPGQRLEWIGYINPSNDYTKYNQKFKDRATLTADKSANTAYMELSSLRSEDTAVYYCARQGFPYWGQGTLVTVSS
VL: EIVLTQSPATLSLSPGERATLSCSASSSVSYMHWYQQKPGQAPRRWIYDTSKLASGVPARFSGSGSGTDYTLTISSLEPEDFAVYYCHQLSSDPFTFGGGTKVEIK
notes: also called h2C10; mAb 2.189.2
Regarding B2, the Kd in [4] stood at 4.72 nM; in test [2] it was 0.39 nM; in [5], 2.61 nM; in [9], 2.57 nM. In [2], the koff amounted to 0.000128 s⁻¹. The kon in test [2] was 179000 M⁻¹ s⁻¹. In addition, the “fold of the affinity of murine 2C10” value in test [6] is at most 2 fold. The “fold of affinity against murine 2C10” value in test [7] is at most 2 fold. Also, the “fold reduction in affinity relative to the parent 2C10 mAb” value in test [8] is around 2 fold.
